Measured values taken from US20040096852A1, “Mixed fibrils” (priority 2000, published 2004).
Ends that are not written are not given here. * marks the point of attachment. Dansyl = CN(C)c1cccc2c(S(=O)(=O)*)cccc12

How the values were obtained:
[1] = pH 2.5
From the text: Where the proteins forming the fibrils are unrelated the kinetics of fibril formation are likely to be different.

[2] = Solubility of peptide under labeling conditions; format: physicochemical
Method: TTR10-19 labeling with fluorescein. The N-terminal cysteine residue of TTR10-19 was the target for labeling by the thiol-reactive fluorophore fluorescein-5-maleimide (F5M; Molecular Probes, Eugene, Oreg.). TTR10-19 was resuspended at 1 mg/ml in H2O, and the cysteine residue reduced by the addition of a 10-fold molar excess of tris-(2-carboxyethyl) phosphine (TCEP; Molecular Probes, Eugene, Oreg.) and incubation for 1 h at room temperature. F5M in DMSO was added to the peptide solution to give a 10-fold molar excess of fluorophore over peptide in a final concentration of 10% DMSO. Under these conditions TTR10-19 was fully soluble. The mixture was incubated overnight at 4° C. to ensure maximum labeling. The labeling mixture was then applied to a disposable SepPak C-18 reverse-phase chromatography column (Waters, Milford, Mass.) and washed with H2O/CH3CN (90:10 v/v). TCEP and unreacted label eluted in the wash. The peptide was then eluted from the column with H2O/CH3CN (40:60 v/v), and a mixture of labeled and unlabelled peptide was detected by MALDI-TOF mass spectrometry. […]
TTR105-115 labeling with dansyl chloride. […] The peptide was then eluted from the column with H2O/CH3CN (50:50 v/v), and a mixture of labeled and unlabelled peptide was detected by MALDI-TOF mass spectrometry. […]

[3] = target: T1, Bovine insulin (bovine, UniProt P01317 85-105; P01317 25-54); experiment: fluorescence anisotropy of labeled peptide co-assembled into fibrils (free peptide 0.03)
T1 construct: mature; Bought protein, assembled into amyloid fibrils at low pH and high temperature; also called insulin fibrils
Method: (§1) All anisotropy measurements were monitored over 10 sec to rule out photobleaching phenomena and then averaged.
(§2) Panel a: F5M-TTR₁₀₋₁₉ incorporated into TTR₁₀₋₁₉ fibrils (dashed line) is compared with F5M-TTR₁₀₋₁₉ (solid line) in 20 mM sodium phosphate buffer, pH 1.0 at a final labeled peptide concentration of 0.3 μM. Panel b: dansyl-TTR₁₀₅₋₁₁₅ incorporated into TTR₁₀₅₋₁₁₅ fibrils (dashed line) is compared with dansyl-TTR₁₀₅₋₁₁₅ (solid line) in water at a final labeled peptide concentration of 0.9 μM. The fluorescence spectra have been normalised. […] Fibrils were pelleted by centrifugation at 9500 g for 15 min, the pellet resuspended in H₂O pH 2 and deposited on a glass slide and imaged using fluorescence light microscopy. […] TTR₁₀₋₁₉ containing 1% (w/w) dansyl-TTR₁₀₅₋₁₁₅ was resuspended at a final total peptide concentration of 10 mg/ml in 10% CH₃CN adjusted to pH 2 with TFA. The sample was incubated at 37° C. for 10 days after which time the CD spectrum indicated the formation of significant O-sheet structure, and fibrils were observed by EM.

[4] = target: T2, TTR105-115 (human); experiment: as above
T2 construct: Unlabelled synthetic peptide, present as amyloid fibrils in the assays
T2 peptide: YTIAALLSPYS
Method: as §1, §2

[5] = target: T3, TTR10-19 (human); experiment: as above
T3 construct: Unlabelled synthetic peptide, present as amyloid fibrils in the assays; also called TTR10-19 fibrils
T3 peptide: CPLMVKVLDA
Method: as §1, §2

[6] = target: T1, Bovine insulin; experiment: fluorescence anisotropy of labeled peptide co-assembled into fibrils (free peptide 0.02)
[7] = target: T2, TTR105-115; experiment: as above
[8] = target: T3, TTR10-19; experiment: as above

T1 sequence (P01317 85-105 limits assumed, chain 1 of 2): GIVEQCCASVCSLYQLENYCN
T1 sequence (P01317 25-54 limits assumed, chain 2 of 2): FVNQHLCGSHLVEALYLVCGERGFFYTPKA

CPLMVKVLDA [TTR10-19]
time remaining soluble [1]: 48 h | solubility ([2]; 1 mg/ml in H2O, TCEP, F5M, final 10% DMSO): fully soluble

YTIAALLSPYS [TTR105-115]
time remaining soluble [1]: 48 h | solubility ([2]; 1 mg/ml in H2O/CH3CN (80:20 v/v), dansyl chloride, 10% DMSO, pH 9.0): fully soluble

B1: F5M-TTR10-19 (peptide)
peptide: C(fluorescein‑5‑maleimide)PLMVKVLDA
notes: Synthetic peptide derived from human transthyretin; also called fluorescein-5-maleimide labeled TTR10-19
fluorescence anisotropy on incorporation into fibrils [3]: 0.16 | fluorescence anisotropy on incorporation into fibrils [4]: 0.22 | fluorescence anisotropy on incorporation into fibrils [5]: 0.17

B2: dansyl-TTR105-115 (peptide)
peptide: Dansyl-YTIAALLSPYS
notes: Synthetic peptide derived from human transthyretin
fluorescence anisotropy on incorporation into fibrils [6]: 0.19 | fluorescence anisotropy on incorporation into fibrils [7]: 0.13 | fluorescence anisotropy on incorporation into fibrils [8]: 0.16
